Assays:
[1] = biological target: T1, Human G-protein Chemokine Receptor (CCR5) HDGNR10 (human, UniProt P51681 1-352); assay: saturation binding of Eu-labelled antibody to CEM.NKR-CCR5 transfected cells, time resolved fluorometry
T1 construct: whole, on cells; also called chemokine receptor 5
Description: (§1) The 43E2 and 43E2/AK38181 antibodies were labeled with Europium (Eu) using Dissociation-Enhanced Lanthanide Fluorescence Immunoassay (DELFIA™) Eu-labeling kit (Catalog #1244-302, Perkin Elmer Life Sciences, Boston, Mass.) following the manufacturer's instructions. The labeling agent is the Eu-chelate of N1-(p-isothiocynateobenzyl) diethylenetriamine N1, N2, N3, N3-tetraacetic acid (DTTA). The DTTA group forms a stable complex with Eu³⁺ and the isothiocynate group reacts with primary amino groups on the antibodies at alkaline pH to form a stable, covalent thiourea bond. […] The Eu³⁺ content and protein concentration of each labeled antibody was determined.
(§2) The Eu-43E2 and Eu-43E2/AK38181 saturation binding assays were performed in 96 well plates, with 0.3-0.5 million CEM.NKR-CCR5 transfected cells per well, and various concentrations of Eu-43E2 and Eu-43E2/AK38181 in the absence or presence of 100-fold excess of unlabeled CCR5mAb004 for 1 hour at room temperature (RT). […] The fluorescence emitted from the released Eu was determined by time resolved fluorometry (VICTOR 1420 DELFIA™ fluorometer, Wallac Oy, Turku, Finland). The data were analyzed on Prizm software (GraphPad Software, San Diego, Calif.) to determine the equilibrium dissociation constant (Kd).

[2] = biological target: T1, Human G-protein Chemokine Receptor …; assay: cell-based or functional assay
[3] = biological target: T1, Human G-protein Chemokine Receptor …; assay: cell-based or functional assay; remark: listed apart in the source
[4] = biological target: T1, Human G-protein Chemokine Receptor …; assay: cell-based or functional assay; remark: listed apart in the source
[5] = biological target: T1, Human G-protein Chemokine Receptor …; assay: cell-based or functional assay; remark: listed apart in the source
[6] = biological target: T1, Human G-protein Chemokine Receptor …; assay: cell-based or functional assay; remark: listed apart in the source
[7] = biological target: T1, Human G-protein Chemokine Receptor …; assay: cell-based or functional assay; remark: listed apart in the source
[8] = biological target: T1, Human G-protein Chemokine Receptor …; assay: saturation binding of Eu-labelled antibodies to CEM.NKR-CCR5 transfected cells
Description: as §1, §2

T1 sequence (P51681 whole entry): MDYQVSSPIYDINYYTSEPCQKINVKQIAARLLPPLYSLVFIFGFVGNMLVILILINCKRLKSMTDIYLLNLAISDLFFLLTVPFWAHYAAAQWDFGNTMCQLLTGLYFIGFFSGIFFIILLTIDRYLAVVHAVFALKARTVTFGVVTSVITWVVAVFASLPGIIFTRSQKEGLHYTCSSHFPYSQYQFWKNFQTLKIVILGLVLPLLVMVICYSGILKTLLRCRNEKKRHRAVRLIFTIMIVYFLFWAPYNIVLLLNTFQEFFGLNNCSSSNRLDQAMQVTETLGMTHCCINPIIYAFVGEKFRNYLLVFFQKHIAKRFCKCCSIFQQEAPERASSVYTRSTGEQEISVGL

B1: 43E2, fully human IgG4 CCR5 monoclonal antibody (secreted by cell line NS0mAb43E2) (antibody, V domains shown)
VH: QVQLVESGGGVVQPGRSLRLSCAASGFTLSGYGMHWVRQAPGKGLEWVSLISYDGSNKYYADSVKGRFTISRDDSKNTLYLRMNSLRAEDTAVYYCARGRNDFWSGYYTAGMDVWGQGTTVTVSS
VL: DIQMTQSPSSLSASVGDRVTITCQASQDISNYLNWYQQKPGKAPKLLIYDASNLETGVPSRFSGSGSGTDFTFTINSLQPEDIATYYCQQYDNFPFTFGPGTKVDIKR
notes: also called Eu-43E2
- Kd [1]: 2.36 nM
- percent of HIV-1-JRFL entry blocked at the highest concentrations tested (up to 2000 nM) [2]: ≤ 60%
- Median IC50, inhibition of HIV-1-luciferase pseudotyped viruses [3]: 5.8 nM
- IC50 (read off the curve), HIV-1-JRFL entry, Donor 2 target cells [4]: ~800 nM
- IC50 of entry of HIV-1-luciferase pseudotyped with env of 92BR025 (clade B) into U87/CD4/CCR5 cells [5]: 5.6 nM
- IC50 of entry of HIV-1-luciferase pseudotyped with env of 92RW009 (clade A) into U87/CD4/CCR5 cells [5]: 3.2 nM
- IC50 of entry of HIV-1-luciferase pseudotyped with env of 92TH001 (clade E) into U87/CD4/CCR5 cells [5]: 1.2 nM
- IC50 of entry of HIV-1-luciferase pseudotyped with env of 92UG005 (clade D) into U87/CD4/CCR5 cells [5]: 2.4 nM
- IC50 of entry of HIV-1-luciferase pseudotyped with env of 93IN101 (clade C) into U87/CD4/CCR5 cells [5]: 1 nM
- IC50 of entry of HIV-1-luciferase pseudotyped with env of 301657 (clade B) into U87/CD4/CCR5 cells [5]: 22.5 nM
- IC50 of entry of HIV-1-luciferase pseudotyped with env of 301714 (clade B) into U87/CD4/CCR5 cells [5]: 35.9 nM
- IC50 of entry of HIV-1-luciferase pseudotyped with env of 302056 (clade B) into U87/CD4/CCR5 cells [5]: 8 nM
- IC50 of entry of HIV-1-luciferase pseudotyped with env of 'Enfuvirtide Resistant' (B/Enfuvirtide Resistant) into U87/CD4/CCR5 cells [5]: 8.5 nM
- IC50 of entry of HIV-1-luciferase pseudotyped with env of ASJM108 (clade B) into U87/CD4/CCR5 cells [5]: 8.7 nM
- IC50 of entry of HIV-1-luciferase pseudotyped with env of ASM80 (clade B) into U87/CD4/CCR5 cells [5]: 7.7 nM
- IC50 of entry of HIV-1-luciferase pseudotyped with env of DU151 (clade C) into U87/CD4/CCR5 cells [5]: 2.2 nM
- IC50 of entry of HIV-1-luciferase pseudotyped with env of JRCSFSDM DIM (B/Enfuvirtide Resistant) into U87/CD4/CCR5 cells [5]: 9.7 nM
- IC50 of entry of HIV-1-luciferase pseudotyped with env of JRFL (clade B) into U87/CD4/CCR5 cells [5]: 5.5 nM
- IC50 of entry of HIV-1-luciferase pseudotyped with env of RU570 (clade G) into U87/CD4/CCR5 cells [5]: 5.2 nM
- Mean IC50 over the panel of HIV-1-luciferase pseudotyped viruses, entry into U87/CD4/CCR5 cells [5]: 8.4 nM
- Median IC50 over the panel of HIV-1-luciferase pseudotyped viruses, entry into U87/CD4/CCR5 cells [5]: 5.8 nM
- IC50 (read off the curve), HIV-1-JRFL entry, Donor 3 target cells [6]: ~800 nM
- IC50 (read off the curve), HIV-1-JRFL entry, Donor 1 target cells [7]: ~1000 nM

B2: 43E2/AK38181, fully human IgG4 CCR5 monoclonal antibody (secreted by cell line NS0mAb43E2/AK38181) (antibody, V domains shown)
VH: QVQLVESGGGVVQPGRSLRLSCAASGFTLSGYGMHWVRQAPGKGLEWVSLISYDGSNKYYADSVKGRFTISRDDSKNTLYLRMNSLRAEDTAVYYCARGRNDFWSGYYTAGMDVWGQGTTVTVSS
VL: DIQMTQSPSSLSASVGDRVTITCQASQGIRKYLNWYQQKPGKVPKLLIYDASNLETGVPSRFSGSGSGTDFTFAISSLQPEDTATYYCQQYDDFPFTFGQGTRLEIKR
notes: also called Eu-43E2/AK38181
- Kd [1]: 1.18 nM
- fold lower IC50 than 43E2, HIV-1-JRFL entry into activated human T-cells [2]: ≥ 10 fold
- fold lower IC50 than 43E2, inhibition of HIV-1 entry into U87/CD4/CCR5 cells [2]: ~3 fold
- fold lower IC90 than 43E2, inhibition of HIV-1 entry into U87/CD4/CCR5 cells [2]: ~10 fold
- fold difference in binding affinity against 43E2 [8]: ~2 fold
- Median IC50, inhibition of HIV-1-luciferase pseudotyped viruses [3]: 1.7 nM
- IC50 (read off the curve), HIV-1-JRFL entry, Donor 2 target cells [4]: ~60 nM
- IC50 of entry of HIV-1-luciferase pseudotyped with env of 92BR025 (clade B) into U87/CD4/CCR5 cells [5]: 1 nM
- IC50 of entry of HIV-1-luciferase pseudotyped with env of 92RW009 (clade A) into U87/CD4/CCR5 cells [5]: 1.1 nM
- IC50 of entry of HIV-1-luciferase pseudotyped with env of 92TH001 (clade E) into U87/CD4/CCR5 cells [5]: 0.6 nM
- IC50 of entry of HIV-1-luciferase pseudotyped with env of 92UG005 (clade D) into U87/CD4/CCR5 cells [5]: 1.4 nM
- IC50 of entry of HIV-1-luciferase pseudotyped with env of 93IN101 (clade C) into U87/CD4/CCR5 cells [5]: 1.1 nM
- IC50 of entry of HIV-1-luciferase pseudotyped with env of 301657 (clade B) into U87/CD4/CCR5 cells [5]: 4.4 nM
- IC50 of entry of HIV-1-luciferase pseudotyped with env of 301714 (clade B) into U87/CD4/CCR5 cells [5]: 5 nM
- IC50 of entry of HIV-1-luciferase pseudotyped with env of 302056 (clade B) into U87/CD4/CCR5 cells [5]: 2.3 nM
- IC50 of entry of HIV-1-luciferase pseudotyped with env of 'Enfuvirtide Resistant' (B/Enfuvirtide Resistant) into U87/CD4/CCR5 cells [5]: 2.5 nM
- IC50 of entry of HIV-1-luciferase pseudotyped with env of ASJM108 (clade B) into U87/CD4/CCR5 cells [5]: 2.2 nM
- IC50 of entry of HIV-1-luciferase pseudotyped with env of ASM80 (clade B) into U87/CD4/CCR5 cells [5]: 2 nM
- IC50 of entry of HIV-1-luciferase pseudotyped with env of DU151 (clade C) into U87/CD4/CCR5 cells [5]: 1.3 nM
- IC50 of entry of HIV-1-luciferase pseudotyped with env of JRCSFSDM DIM (B/Enfuvirtide Resistant) into U87/CD4/CCR5 cells [5]: 2.8 nM
- IC50 of entry of HIV-1-luciferase pseudotyped with env of JRFL (clade B) into U87/CD4/CCR5 cells [5]: 2.2 nM
- IC50 of entry of HIV-1-luciferase pseudotyped with env of RU570 (clade G) into U87/CD4/CCR5 cells [5]: 1.7 nM
- Mean IC50 over the panel of HIV-1-luciferase pseudotyped viruses, entry into U87/CD4/CCR5 cells [5]: 2.1 nM
- Median IC50 over the panel of HIV-1-luciferase pseudotyped viruses, entry into U87/CD4/CCR5 cells [5]: 1.7 nM
- IC50 (read off the curve), HIV-1-JRFL entry, Donor 3 target cells [6]: ~20 nM
- IC50 (read off the curve), HIV-1-JRFL entry, Donor 1 target cells [7]: ~100 nM

From patent US20070122405A1 (Human Genome Sciences, published 2007)
